The values below come from patent US20190367612A1 (Daiichi Sankyo, published 2019).

What is called Kd is a measure of binding affinity in units of concentration. As a reminder, the EC50 (read off the curve) is the concentration at which the effect is half-maximal.

To fix the notation:
B1: humanized anti-GPRC5D antibody h7B4_H3/L2 (antibody, human IgG1, kappa)
heavy: not shown
light: DIQMTQSPSSLSLSPGERATLSCKASQNINKYLDWYQQKPGQPPRLLIYNTNNLHTGIPDRFSGSGSGTDYTLTISRLEPEDFAVYYCLQRNSWYTFGQGTKVEIKRTVAAPSVFIFPPSDEQLKSGTASVVCLLNNFYPREAKVQWKVDNALQSGNSQESVTEQDSKDSTYSLSSTLTLSKADYEKHKVYACEVTHQGLSSPVTKSFNRGEC
notes: Human IgG1 / kappa
B2: humanized anti-GPRC5D antibody h7B4_H1/L2 (antibody, human IgG1, kappa)
heavy: not shown
light: B1 light
notes: Human IgG1 / kappa
B3: humanized anti-GPRC5D antibody h7B4_H2/L2 (antibody, human IgG1, kappa, V domains shown)
VH: EIQLQESGPGLVKPSQTLSLTCTVSGYTITSGYDWSWIRQPPGKGLEWIGYMSYRGSTNYNPSLKSRVTISRDTSKNQFSLKLSSVTAADTAVYYCALTRTYWYNYYYVLDAWGQGTLVTVSS
VL: DIQMTQSPSSLSLSPGERATLSCKASQNINKYLDWYQQKPGQPPRLLIYNTNNLHTGIPDRFSGSGSGTDYTLTISRLEPEDFAVYYCLQRNSWYTFGQGTKVEIKR
notes: Human IgG1 / kappa
B4: humanized anti-GPRC5D antibody h7B4_H3/L1 (antibody, human IgG1, kappa)
heavy: not shown
light: B1 light with D1E, Q3V, M4L, S9G, S10T
notes: Human IgG1 / kappa
B5: humanized anti-GPRC5D antibody h7B4_H5/L1 (antibody, human IgG1, kappa, V domains shown)
VH: B3 VH with Q40K, K44N, G45K, L46M, G50A
VL: B3 VL with D1E, Q3V, M4L, S9G, S10T
notes: Human IgG1 / kappa
B6: E1018 scFv (high binding mutant of C3022) (scFv)
chain: QVQLVQSGAEVKKPGASVKVSCKASGYTFTGYYMHWVRQAPGQGLEWMGRINPNSGGTNYAQKFQGRVTMTRDTSISTAYMELSGLRSDDTAVYYCKSGSVRPPWGQGTLVTVSSGGGGSGGGGSGGGGSQPVLTQPPSASGTPGQRVTISCSGSRSNIGGNIVSWYQQFPGTAPRLLTYRNTRRPSGVPDRFSGSKSGTSASLAISGLQSEDEADYYCAAWDDSLGGVVFGGGTKLTVL
B7: anti-GPRC5D-anti-CD3 bispecific molecule C3048-C3E7036 (bispecific antibody)
scFv: GQVQLVQSGAEVKKPGSSVKVSCKASGGTFSRYAISWVRQAPGQGLEWMGGIIPIFGTANYAQKFQGRVTITADQSTRTAYMDLGRLRSEDTAVYYCALEGFRDSLKRNPFDIWGQGTMVTVSSGGGGSGGGGSGGGGSQSVVTQPPSVSAAPGQKVTISCSGGTTNIGSNYVSWYQQLPGTAPKFLMYENNKRPSGIPDRFSGSKSGTSATLAITGLQTGDEATYYCSTWDSSLNTGLFGGGTKLTVLGGGGSEVQLVESGGGLVQPGGSLRLSCAASGVTFNYYGMSWIRQAPGKGLEWVASITNSGGRIYYPDSVKGRFTISRENTQKTLYLQMNSLRAEDTAVYYCTLDGRDGWVAYWGQGTLVTVSSGGGGSGGGGSGGGGSNFMLTQPSSVSGVPGQRVTISCTGNTGNIGSNYVNWYQQLPGTAPKLLIYRDDKRPSGVPDRFSGSKSGTSASLAITGFQAEDEADYYCQSYSSGFIFGGGTKLTVLGAAAGAGGDYKDDDDKGAAAHHHHHH
notes: Tandem scFv
B8: anti-GPRC5D-anti-CD3 bispecific molecule C3022-C3E7036 (bispecific antibody)
scFv: GQVQLVQSGAEVKKPGASVKVSCKASGYTFTGYYMHWVRQAPGQGLEWMGRINPNSGGTNYAQKFQGRVTMTRDTSISTAYMELSGLRSDDTAVYYCASGSVRHPWGQGTLVTVSSGGGGSGGGGSGGGGSQPVLTQPPSASGTPGQRVTISCSGSRSNIGGNIVSWYQQFPGTAPRLLTYADNQRPSGVPDRFSGSKSGTSASLAISGLQSEDEADYYCAAWDDSLNGVVFGGGTKLTVLGGGGSEVQLVESGGGLVQPGGSLRLSCAASGVTFNYYGMSWIRQAPGKGLEWVASITNSGGRIYYPDSVKGRFTISRENTQKTLYLQMNSLRAEDTAVYYCTLDGRDGWVAYWGQGTLVTVSSGGGGSGGGGSGGGGSNFMLTQPSSVSGVPGQRVTISCTGNTGNIGSNYVNWYQQLPGTAPKLLIYRDDKRPSGVPDRFSGSKSGTSASLAITGFQAEDEADYYCQSYSSGFIFGGGTKLTVLGAAAGAGGDYKDDDDKGAAAHHHHHH
notes: Tandem scFv

Changes are numbered by the printed parent chain.

T1 sequence (Q9NZD1 whole entry): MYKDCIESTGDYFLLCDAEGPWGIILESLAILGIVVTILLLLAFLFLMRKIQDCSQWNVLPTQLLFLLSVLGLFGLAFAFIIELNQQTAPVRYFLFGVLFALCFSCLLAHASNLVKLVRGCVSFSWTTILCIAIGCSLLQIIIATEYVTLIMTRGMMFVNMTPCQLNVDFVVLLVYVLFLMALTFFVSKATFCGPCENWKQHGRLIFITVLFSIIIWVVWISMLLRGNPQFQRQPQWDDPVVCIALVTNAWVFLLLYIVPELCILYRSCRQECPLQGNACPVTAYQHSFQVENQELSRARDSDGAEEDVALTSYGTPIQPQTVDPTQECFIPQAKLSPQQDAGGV

One assay has as its target T1, human GPRC5D (human, UniProt Q9NZD1 1-345).
T1 construct: whole, on cells; also called hGPRC5D; G-protein coupled receptor family C group 5 member D
Description: flow cytometry on KHM-1B cells (human GPRC5D), culture supernatant, PE anti-human IgG Fc, rMFI over human IgG isotype control. How it is done: Human multiple myeloma cell line KHM-1B cells expressing GPRC5D were adjusted to a concentration of 2×10⁶ cells/mL with PBS containing 5% FBS, inoculated in an amount of 100 μL/well to a 96-well U-bottomed microplate, and centrifuged to remove a supernatant. The culture supernatant of each humanized anti-GPRC5D antibody obtained in Example 8)-3-1 or Human IgG isotype control antibody (Calbiochem/Merck Millipore Corp.) adjusted to 14 ng/mL to 30 μg/mL was added thereto in an amount of 100 μL/well, and the plate was left standing at 4° C. for 1 hour. The cells were washed twice with PBS containing 5% FBS. Then, R-Phycoerythrin AffiniPure F(ab′)2 Fragment Goat Anti-Human IgG, Fcγ Fragment Specific (Jackson ImmunoResearch Laboratories, Inc.) diluted 100-fold with PBS containing 5% FBS was added thereto in an amount of 100 μL/well, and the plate was left standing at 4° C. for 1 hour. The cells were washed twice with PBS containing 5% FBS and then resuspended in PBS containing 5% FBS, followed by detection using a flow cytometer (FACSCanto™ II; Becton, Dickinson and Company). The data was analyzed using Flowjo (Tree Star, Inc.). The PE fluorescence intensity of the cell fraction was plotted to a histogram, and the mean fluorescence intensity (MFI) was calculated. The MFI value of the control antibody was subtracted from the MFI value of the GPRC5D antibody to calculate a relative value of MFI (rMFI).
In general terms: Flow cytometry measures light scatter and fluorescence of single cells or particles in a stream.
For the molecule B1, the binding result is “binds”.

In the case of B2, the binding result is listed as “binds”.

As to B3, the binding result was “binds”.

As for B4, the binding result is reported as “binds”.

Turning to B5, the binding result was “binds”.

A further assay deals with T2, human GPRC5D amino-terminal peptide MYKDCIESTGDYFLLCDAEGPWGIILE-K(Biotin)-NH2, having an intramolecular … (human, C-terminal lysine carrying biotin, C-terminal amide; intramolecularly formed disulfide bond).
T2 construct: Peptide Institute synthetic peptide; also called amino-terminal peptide of biotinylated human GPRC5D (disulfide bond present)
T2 peptide: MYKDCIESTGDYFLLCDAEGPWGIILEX
Put plainly: SPR (Biacore T200), kinetic analysis: biotinylated amino-terminal peptide of human GPRC5D on Sensor Chip CAP, scFv as analyte. As to the method: The binding activity of the anti-GPRC5D antibodies against the amino-terminal peptide of human GPRC5D was tested by SPR using Biacore T200. The amino-terminal peptide of biotinylated human GPRC5D diluted to 2 nM with HBS-EP+ (manufactured by GE Healthcare Bio-Sciences Corp.) was immobilized on Sensor Chip CAP (manufactured by GE Healthcare Bio-Sciences Corp.) by contact at a rate of 10 μL/min for 180 seconds. Then, Kd was calculated by kinetic analysis using a plurality of concentrations of each scFv diluted with HBS-EP+ as analytes.
In the case of B6, the Kd was determined as 0.0032 nM.

In the next assay the target is T3, cynomolgus monkey GPRC5D (cynomolgus monkey).
T3 construct: whole, on cells; Stably expressed on KMS-11 cells (KMS-11_cGPRC5D); also called cGPRC5D
Put plainly: flow cytometry on KMS-11_cGPRC5D cells (cynomolgus monkey GPRC5D), PE anti-human IgG Fc detection, rMFI = MFI minus isotype control.
For the molecule B1, the “EC50 (read off the curve)” value is around 2 nM.

As to B2, the “EC50 (read off the curve)” value was around 3 nM.

B3: the “EC50 (read off the curve)” value was around 2 nM.

B4: the “EC50 (read off the curve)” value is around 2 nM.

For the molecule B5, the “EC50 (read off the curve)” value was around 2 nM.

A further assay concerns the target T1, human GPRC5D. Description: flow cytometry on A4/Fuk cells (endogenous human GPRC5D), Penta-His Alexa Fluor 488 detection, rMFI = MFI minus sample without antibody. How it is done:
Lymphoma cell line A4/Fuk cells (JCRB Cell Bank) were adjusted to an appropriate concentration with PBS containing 5% FBS. LIVE/DEAD Fixable Near-IR Dead Cell Stain Kit was added to the cells, which were then left standing at 4° C. for 30 minutes. The cells were washed twice with PBS containing 5% FBS, then adjusted to a concentration of 1×10⁶ cells/mL with PBS containing 5% FBS, inoculated in an amount of 100 μL/well to a 96-well U-bottomed microplate, and centrifuged to remove a supernatant. Each anti-GPRC5D-anti-CD3 bispecific molecule (C2037-C3E7034 to C3022-C3E7036 prepared in Example 12) diluted with PBS containing 5% FBS were added thereto in an amount of 100 μL/well, and the plate was left standing at 4° C. for 60 minutes. The cells were washed twice with PBS containing 5% FBS. Then, Penta-His Alexa Fluor 488 diluted with PBS containing 5% FBS was added thereto in an amount of 30 μL/well, and the plate was left standing at 4° C. for 30 minutes. The cells were washed twice with PBS containing 5% FBS and then resuspended in PBS containing 5% FBS, followed by detection using a flow cytometer (FACSCanto™ II). The data was analyzed using Flowjo. The mean fluorescence intensity (MFI) of Alexa Fluor 488 in a fraction free from dead cells was calculated. The MFI value of the antibody-unsupplemented sample was subtracted from the MFI value of the antibody-supplemented sample to calculate a relative value of MFI (rMFI).
Take B7: the binding result was “binds”.

For B8, the binding result was “binds”.
